Test results published in the RNAGym collection of RNA variant scans (doi:10.1093/molbev/msab373).

B1: Azoarcus group I ribozyme (parent)
chain: GUGCCUUGCGCCGGGAAACCACGCAAGGGAUGGUGUCAAAUUCGGCGAAACCUAAGCGCCCGCCCGGGCGUAUGGCAACGCCGAGCCAAGCUUCGGCGCCUGCGCCGAUGAAGGUGUAGAGACUAGACGGCACCCACCUAAGGCAAACGCUAUGGUGAAGGCAUAGUCCAGGGAGUGGCGAAAGUCACACAAACCGG

Variants of: B1
Test: reverse-splicing fitness (ratio to wild type); higher = more active; in vitro selection; Mg2+ level not given
Outline: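 An in vitro group I ribozyme library with randomized positions was T7-transcribed and gel-purified. In triplicate, 10 pmol RNA in EPPS pH 7.5 was reacted with 50 pmoles of a 30-nt RNA substrate for 1 h at 37 °C across several added MgCl2 levels (1–48 mM), then stopped with EDTA. Products were reverse transcribed from a substrate-complementary primer, PCR-amplified and sequenced (HiSeq 4000). Fitness is a variant's read proportion after selection over that before, normalised to wild type.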

Variant | reverse-splicing fitness
GUGCCUUGCGCCGGGAAACCACGCAAGGGAUGGUGUCAAAUUCGGCGAAACCUAAGCGCCCGCCCGGGCGUAUGGCAACGCGGAGCCAAGCUUCGGCGCCUGCGCCGAUGUAGGUGUAGGGACUAGACGGCACCCACCUAAGGCCAACGCUAUGGUGAAGGCAUAGUCCAGGGAGAGGCGAAAGUCACACAAACCGG [C82G A111U A120G A145C U176A] | 0.012
GUGCCUUGCGCCGGGAAACCACGCAAGGGAUGGUGUCAAAUUCGGCGAAACCUAAGCGCCCGCCCGGGCGUAUGGCAACGCGGAGCCAAGCUUCGGCGCCUGCGCCGAUGUAGGUGUAGGGACUAGACGGCACCCACCUAAGGCCAACGCUAUGGUGAAGGCAUAGUCCAGGGAGCGGCGAAAGUCACACAAACCGG [C82G A111U A120G A145C U176C] | 0.0136
GUGCCUUGCGCCGGGAAACCACGCAAGGGAUGGUGUCAAAUUCGGCGAAACCUAAGCGCCCGCCCGGGCGUAUGGCAACGCGGAGCCAAGCUUCGGCGCCUGCGCCGAUGUAGGUGUAGGGACUAGACGGCACCCACCUAAGGCCAACGCUAUGGUGAAGGCAUAGUCCAGGGAGGGGCGAAAGUCACACAAACCGG [C82G A111U A120G A145C U176G] | 0.0065
GUGCCUUGCGCCGGGAAACCACGCAAGGGAUGGUGUCAAAUUCGGCGAAACCUAAGCGCCCGCCCGGGCGUAUGGCAACGCGGAGCCAAGCUUCGGCGCCUGCGCCGAUGUAGGUGUAGGGACUAGACGGCACCCACCUAAGGCGAACGCUAUGGUGAAGGCAUAGUCCAGGGAGUGGCGAAAGUCACACAAACCGG [C82G A111U A120G A145G] | 0.0151
GUGCCUUGCGCCGGGAAACCACGCAAGGGAUGGUGUCAAAUUCGGCGAAACCUAAGCGCCCGCCCGGGCGUAUGGCAACGCGGAGCCAAGCUUCGGCGCCUGCGCCGAUGUAGGUGUAGGGACUAGACGGCACCCACCUAAGGCGAACGAUAUGGUGAAGGCAUAGUCCAGGGAGUGGCGAAAGUCACACAAACCGG [C82G A111U A120G A145G C150A] | 0.00899
GUGCCUUGCGCCGGGAAACCACGCAAGGGAUGGUGUCAAAUUCGGCGAAACCUAAGCGCCCGCCCGGGCGUAUGGCAACGCGGAGCCAAGCUUCGGCGCCUGCGCCGAUGUAGGUGUAGGGACUAGACGGCACCCACCUAAGGCGAACGAUAUGGUGAAGGCAUAGUCAAGGGAGUGGCGAAAGUCACACAAACCGG [C82G A111U A120G A145G C150A C169A] | 0.0109
GUGCCUUGCGCCGGGAAACCACGCAAGGGAUGGUGUCAAAUUCGGCGAAACCUAAGCGCCCGCCCGGGCGUAUGGCAACGCGGAGCCAAGCUUCGGCGCCUGCGCCGAUGUAGGUGUAGGGACUAGACGGCACCCACCUAAGGCGAACGAUAUGGUGAAGGCAUAGUCAAGGGAGAGGCGAAAGUCACACAAACCGG [C82G A111U A120G A145G C150A C169A U176A] | 0.0195
GUGCCUUGCGCCGGGAAACCACGCAAGGGAUGGUGUCAAAUUCGGCGAAACCUAAGCGCCCGCCCGGGCGUAUGGCAACGCGGAGCCAAGCUUCGGCGCCUGCGCCGAUGUAGGUGUAGGGACUAGACGGCACCCACCUAAGGCGAACGAUAUGGUGAAGGCAUAGUCAAGGGAGCGGCGAAAGUCACACAAACCGG [C82G A111U A120G A145G C150A C169A U176C] | 0.0216
GUGCCUUGCGCCGGGAAACCACGCAAGGGAUGGUGUCAAAUUCGGCGAAACCUAAGCGCCCGCCCGGGCGUAUGGCAACGCGGAGCCAAGCUUCGGCGCCUGCGCCGAUGUAGGUGUAGGGACUAGACGGCACCCACCUAAGGCGAACGAUAUGGUGAAGGCAUAGUCAAGGGAGGGGCGAAAGUCACACAAACCGG [C82G A111U A120G A145G C150A C169A U176G] | 0.00669
GUGCCUUGCGCCGGGAAACCACGCAAGGGAUGGUGUCAAAUUCGGCGAAACCUAAGCGCCCGCCCGGGCGUAUGGCAACGCGGAGCCAAGCUUCGGCGCCUGCGCCGAUGUAGGUGUAGGGACUAGACGGCACCCACCUAAGGCGAACGAUAUGGUGAAGGCAUAGUCGAGGGAGUGGCGAAAGUCACACAAACCGG [C82G A111U A120G A145G C150A C169G] | 0.00903
GUGCCUUGCGCCGGGAAACCACGCAAGGGAUGGUGUCAAAUUCGGCGAAACCUAAGCGCCCGCCCGGGCGUAUGGCAACGCGGAGCCAAGCUUCGGCGCCUGCGCCGAUGUAGGUGUAGGGACUAGACGGCACCCACCUAAGGCGAACGAUAUGGUGAAGGCAUAGUCGAGGGAGAGGCGAAAGUCACACAAACCGG [C82G A111U A120G A145G C150A C169G U176A] | 0.0165
GUGCCUUGCGCCGGGAAACCACGCAAGGGAUGGUGUCAAAUUCGGCGAAACCUAAGCGCCCGCCCGGGCGUAUGGCAACGCGGAGCCAAGCUUCGGCGCCUGCGCCGAUGUAGGUGUAGGGACUAGACGGCACCCACCUAAGGCGAACGAUAUGGUGAAGGCAUAGUCGAGGGAGCGGCGAAAGUCACACAAACCGG [C82G A111U A120G A145G C150A C169G U176C] | 0.025
GUGCCUUGCGCCGGGAAACCACGCAAGGGAUGGUGUCAAAUUCGGCGAAACCUAAGCGCCCGCCCGGGCGUAUGGCAACGCGGAGCCAAGCUUCGGCGCCUGCGCCGAUGUAGGUGUAGGGACUAGACGGCACCCACCUAAGGCGAACGAUAUGGUGAAGGCAUAGUCGAGGGAGGGGCGAAAGUCACACAAACCGG [C82G A111U A120G A145G C150A C169G U176G] | 0.0053
GUGCCUUGCGCCGGGAAACCACGCAAGGGAUGGUGUCAAAUUCGGCGAAACCUAAGCGCCCGCCCGGGCGUAUGGCAACGCGGAGCCAAGCUUCGGCGCCUGCGCCGAUGUAGGUGUAGGGACUAGACGGCACCCACCUAAGGCGAACGAUAUGGUGAAGGCAUAGUCUAGGGAGUGGCGAAAGUCACACAAACCGG [C82G A111U A120G A145G C150A C169U] | 0.00945
GUGCCUUGCGCCGGGAAACCACGCAAGGGAUGGUGUCAAAUUCGGCGAAACCUAAGCGCCCGCCCGGGCGUAUGGCAACGCGGAGCCAAGCUUCGGCGCCUGCGCCGAUGUAGGUGUAGGGACUAGACGGCACCCACCUAAGGCGAACGAUAUGGUGAAGGCAUAGUCUAGGGAGAGGCGAAAGUCACACAAACCGG [C82G A111U A120G A145G C150A C169U U176A] | 0.0204
